Assay results reported in patent US20200340991A1.
Each block holds one substance with its values, some of them ahead of it.

Target: chimeric TSH receptor (chimeric MC4 receptor) expressed on CHO-MC4 cells (human/rat chimera) (UniProt P16473)
Assay: cell-based or functional assay

thyroid blocking monoclonal antibody K1-70, sequence (VH): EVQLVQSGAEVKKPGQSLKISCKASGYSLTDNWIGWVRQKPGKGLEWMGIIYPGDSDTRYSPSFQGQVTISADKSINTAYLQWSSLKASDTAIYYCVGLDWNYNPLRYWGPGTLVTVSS
thyroid blocking monoclonal antibody K1-70, sequence (VL): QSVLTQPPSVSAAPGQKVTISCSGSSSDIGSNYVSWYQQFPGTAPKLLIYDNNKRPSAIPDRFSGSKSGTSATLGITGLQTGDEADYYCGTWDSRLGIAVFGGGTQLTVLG

- % inhibition, TBI assay, FSH 116.3 mIU/ml in reaction buffer (no K1-70): 0%
- % inhibition, TBI assay, FSH 232.6 mIU/ml in reaction buffer (no K1-70): 1%
- RLU, TBI assay, FSH 116.3 mIU/ml in reaction buffer (no K1-70): 16500 RLU
- RLU, TBI assay, FSH 232.6 mIU/ml in reaction buffer (no K1-70): 16300 RLU
Substance: follicle stimulating hormone (ligand)

- % inhibition, TBI assay, hCG 8000 mIU/ml in reaction buffer (no K1-70): -7%
- % inhibition, TBI assay, hCG 16000 mIU/ml in reaction buffer (no K1-70): 0%
- RLU, TBI assay, hCG 8000 mIU/ml in reaction buffer (no K1-70): 17500 RLU
- RLU, TBI assay, hCG 16000 mIU/ml in reaction buffer (no K1-70): 16500 RLU
Substance: human chorionic gonadotropin (from UniProt P01215 25-116; P0DN86 21-165) (ligand)

- % inhibition, TBI assay, LH 20 mIU/ml in reaction buffer (no K1-70): -5%
- % inhibition, TBI assay, LH 40 mIU/ml in reaction buffer (no K1-70): -6%
- RLU, TBI assay, LH 20 mIU/ml in reaction buffer (no K1-70): 17300 RLU
- RLU, TBI assay, LH 40 mIU/ml in reaction buffer (no K1-70): 17400 RLU
Substance: luteinizing hormone (ligand)

- % inhibition, TBI assay, 2.5 ng K1-70 (TBI positive): 86%
- % inhibition, TBI assay, K1-70 0.0025 ng/ml: -6%
- % inhibition, TBI assay, K1-70 0.1 ng/ml: 6%
- % inhibition, TBI assay, K1-70 0.4 ng/ml: 25%
- % inhibition, TBI assay, K1-70 0.6 ng/ml: 27%
- % inhibition, TBI assay, K1-70 1 ng/ml: 38%
- % inhibition, TBI assay, K1-70 1.5 ng/ml: 55%
- % inhibition, TBI assay, K1-70 1.56 ng/ml: 60%
- % inhibition, TBI assay, K1-70 5 ng/ml: 102%
- % inhibition, TBI assay, K1-70 10 ng/ml: 114%
- % inhibition, TBI assay, K1-70 12.5 ng/ml: 104%
- % inhibition, TBI assay, K1-70 25 ng/ml: 104%
- % inhibition, TBI assay, K1-70 50 ng/ml: 103%
- % inhibition, TBI assay, K1-70 100 ng/ml: 101%
- % inhibition, TBI assay, K1-70 only 100% (5 ng/ml K1-70): 94%
- % inhibition, TBI assay, mixture M22:K1-70 10:90: 77%
- % inhibition, TBI assay, mixture M22:K1-70 20:80: 51%
- % inhibition, TBI assay, mixture M22:K1-70 30:70: 27%
- % inhibition, TBI assay, mixture M22:K1-70 50:50: -37%
- % inhibition, TBI assay, mixture M22:K1-70 60:40: -59%
- % inhibition, TBI assay, mixture M22:K1-70 90:10: -98%
- IC50, TBI bioassay: 1.34 ng/mL
- IC50 of TBI assay with CHO-MC4 cells: 1.34 ng/mL
- RLU, TBI assay, 2.5 ng K1-70 (TBI positive): 5530 RLU
- RLU, TBI assay, 2.5 ng K1-70 with FSH 116.3 mIU/ml: 6100 RLU
- RLU, TBI assay, 2.5 ng K1-70 with FSH 232.6 mIU/ml: 5810 RLU
- RLU, TBI assay, 2.5 ng K1-70 with LH 20 mIU/ml: 6100 RLU
- RLU, TBI assay, 2.5 ng K1-70 with LH 40 mIU/ml: 5770 RLU
- RLU, TBI assay, 2.5 ng K1-70 with hCG 8000 mIU/ml: 6000 RLU
- RLU, TBI assay, 2.5 ng K1-70 with hCG 16000 mIU/ml: 5950 RLU
- RLU, TBI assay, K1-70 0.0025 ng/ml: 16400 RLU
- RLU, TBI assay, K1-70 0.05 ng/ml: 15700 RLU
- RLU, TBI assay, K1-70 0.1 ng/ml: 13600 RLU
- RLU, TBI assay, K1-70 0.2 ng/ml: 14100 RLU
- RLU, TBI assay, K1-70 0.4 ng/ml: 12800 RLU
- RLU, TBI assay, K1-70 0.6 ng/ml: 12600 RLU
- RLU, TBI assay, K1-70 0.8 ng/ml: 12700 RLU
- RLU, TBI assay, K1-70 1 ng/ml: 11300 RLU
- RLU, TBI assay, K1-70 1.5 ng/ml: 9420 RLU
- RLU, TBI assay, K1-70 2 ng/ml: 7940 RLU
- RLU, TBI assay, K1-70 2.5 ng/ml: 6620 RLU
- RLU, TBI assay, K1-70 5 ng/ml: 4010 RLU
- RLU, TBI assay, K1-70 10 ng/ml: 2700 RLU
- RUT, TBI assay, K1-70 only 100% (5 ng/ml K1-70): 2420 RUT
- RUT, TBI assay, mixture M22:K1-70 10:90: 4000 RUT
- RUT, TBI assay, mixture M22:K1-70 20:80: 6470 RUT
- RUT, TBI assay, mixture M22:K1-70 30:70: 8650 RUT
- RUT, TBI assay, mixture M22:K1-70 40:60: 12300 RUT
- RUT, TBI assay, mixture M22:K1-70 50:50: 14600 RUT
- RUT, TBI assay, mixture M22:K1-70 60:40: 16700 RUT
- RUT, TBI assay, mixture M22:K1-70 70:30: 17600 RUT
- RUT, TBI assay, mixture M22:K1-70 80:20: 19600 RUT
- RUT, TBI assay, mixture M22:K1-70 90:10: 20400 RUT
- sensitivity of TBI bioassay against TRAb assay: > 20 fold
Substance: thyroid blocking monoclonal antibody K1-70

- % inhibition, TBI assay, M22 0.02 ng/ml: 2%
- % inhibition, TBI assay, M22 0.04 ng/ml: 0%
- % inhibition, TBI assay, M22 0.05 ng/ml: -6%
- % inhibition, TBI assay, M22 0.06 ng/ml: -11%
- % inhibition, TBI assay, M22 0.08 ng/ml: -21%
- % inhibition, TBI assay, M22 0.1 ng/ml: -27%
- % inhibition, TBI assay, M22 0.15 ng/ml: -32%
- % inhibition, TBI assay, M22 0.2 ng/ml: -52%
- % inhibition, TBI assay, M22 0.25 ng/ml: -50%
- % inhibition, TBI assay, M22 0.3 ng/ml: -65%
- % inhibition, TBI assay, M22 0.35 ng/ml: -63%
- % inhibition, TBI assay, M22 0.4 ng/ml: -64%
- % inhibition, TBI assay, M22 0.6 ng/ml: -66%
- % inhibition, TBI assay, M22 0.8 ng/ml: -73%
- % inhibition, TBI assay, M22 1.2 ng/ml: -83%
- % inhibition, TBI assay, M22 only 100% (0.8 ng/ml M22): -106%
- EC50 of stimulatory activity, TBI assay: 0.16 ng/mL
- EC50 of stimulatory activity, TSI assay: 0.14 ng/mL
- RLU, TBI assay, M22 0.02 ng/ml: 9070 RLU
- RLU, TBI assay, M22 0.04 ng/ml: 9260 RLU
- RLU, TBI assay, M22 0.05 ng/ml: 9690 RLU
- RLU, TBI assay, M22 0.06 ng/ml: 10100 RLU
- RLU, TBI assay, M22 0.08 ng/ml: 10900 RLU
- RLU, TBI assay, M22 0.1 ng/ml: 11300 RLU
- RLU, TBI assay, M22 0.15 ng/ml: 11700 RLU
- RLU, TBI assay, M22 0.2 ng/ml: 13300 RLU
- RLU, TBI assay, M22 0.25 ng/ml: 13100 RLU
- RLU, TBI assay, M22 0.3 ng/ml: 14300 RLU
- RLU, TBI assay, M22 0.35 ng/ml: 14100 RLU
- RLU, TBI assay, M22 0.4 ng/ml: 14200 RLU
- RLU, TBI assay, M22 0.6 ng/ml: 14400 RLU
- RLU, TBI assay, M22 0.8 ng/ml: 15000 RLU
- RLU, TBI assay, M22 1.2 ng/ml: 15700 RLU
- RUT, TBI assay, M22 only 100% (0.8 ng/ml M22): 21200 RUT
- SRR % (TBI), M22 0.02 ng/ml: 61%
- SRR % (TBI), M22 0.04 ng/ml: 95%
- SRR % (TBI), M22 0.05 ng/ml: 111%
- SRR % (TBI), M22 0.06 ng/ml: 122%
- SRR % (TBI), M22 0.08 ng/ml: 146%
- SRR % (TBI), M22 0.1 ng/ml: 180%
- SRR % (TBI), M22 0.15 ng/ml: 236%
- SRR % (TBI), M22 0.2 ng/ml: 270%
- SRR % (TBI), M22 0.25 ng/ml: 283%
- SRR % (TBI), M22 0.3 ng/ml: 302%
- SRR % (TBI), M22 0.35 ng/ml: 315%
- SRR % (TBI), M22 0.4 ng/ml: 332%
- SRR % (TBI), M22 0.6 ng/ml: 368%
- SRR % (TBI), M22 0.8 ng/ml: 368%
- SRR % (TBI), M22 1.2 ng/ml: 365%
Substance: thyroid stimulating monoclonal antibody M22
